± gives the standard deviation of the averaged measurements.
Test: total protein half-life in vivo (active degradation + dilution); higher = more stable protein
[1] = wild type E. coli NCM3722, growth: C-lim chemostat, doubling time 3 h
[2] = wild type E. coli NCM3722, growth: C-lim chemostat, doubling time 12 h
[3] = E. coli NCM3722 delta-clpP delta-lon delta-hslV, growth: N-lim chemostat, doubling time 6 h
[4] = E. coli NCM3722 delta-hslV, growth: N-lim chemostat, doubling time 6 h
[5] = E. coli NCM3722 delta-lon, growth: N-lim chemostat, doubling time 6 h
[6] = E. coli NCM3722 delta-smpB, growth: N-lim chemostat, doubling time 6 h
[7] = wild type E. coli NCM3722, growth: C-lim chemostat, doubling time 6 h
[8] = wild type E. coli NCM3722, growth: N-lim chemostat, doubling time 6 h
[9] = wild type E. coli NCM3722, growth: N-lim chemostat, doubling time 12 h
[10] = wild type E. coli NCM3722, growth: P-lim chemostat, doubling time 6 h
[11] = wild type E. coli NCM3722, growth: P-lim chemostat, doubling time 12 h
[12] = E. coli NCM3722 delta-clpP, growth: N-lim chemostat, doubling time 6 h

| Sequence | total protein half-life in vivo [1] [h] | total protein half-life in vivo [2] [h] | total protein half-life in vivo [3] [h] | total protein half-life in vivo [4] [h] | total protein half-life in vivo [5] [h] | total protein half-life in vivo [6] [h] | total protein half-life in vivo [7] [h] | total protein half-life in vivo [8] [h] | total protein half-life in vivo [9] [h] | total protein half-life in vivo [10] [h] | total protein half-life in vivo [11] [h] | total protein half-life in vivo [12] [h] |
| --- | --- | --- | --- | --- | --- | --- | --- | --- | --- | --- | --- | --- |
| MAKNYAALARSVIAALGGVDNISAVTHCMTRLRFVIKDDALIDSPTLKTIPGVLGVVRSDNQCQVIIGNTVSQAFQEVVSLLPGDMQPAQPVGKPKLTLRRIGAGILDALIGTMSPLIPAIIGGSMVKLLAMILEMSGVLTKGSPTLTILNVIGDGAFFFLPLMVAASAAIKFKTNMSLAIAIAGVLVHPSFIELMAKAAQGEHVEFALIPVTAVKYTYTVIPALVMTWCLSYIERWVDSITPAVTKNFLKPMLIVLIAAPLAILLIGPIGIWIGSAISALVYTIHGYLGWLSVAIMGALWPLLVMTGMHRVFTPTIIQTIAETGKEGMVMPSEIGANLSLGGSSLAVAWKTKNPELRQTALAAAASAIMAGISEPALYGVAIRLKRPLIASLISGFICGAVAGMAGLASHSMAAPGLFTSVQFFDPANPMSIVWVFAVMALAVVLSFILTLLLGFEDIPVEEAAAQARKYQSVQPTVAKEVSLN | 1.77 ± 0.078 | 3.55 |  |  |  |  |  |  |  |  |  |  |
| MAKQPGLDFQSAKGGLGELKRRLLFVIGALIVFRIGSFIPIPGIDAAVLAKLLEQQRGTIIEMFNMFSGGALSRASIFALGIMPYISASIIIQLLTVVHPTLAEIKKEGESGRRKISQYTRYGTLVLAIFQSIGIATGLPNMPGMQGLVINPGFAFYFTAVVSLVTGTMFLMWLGEQITERGIGNGISIIIFAGIVAGLPPAIAHTIEQARQGDLHFLVLLLVAVLVFAVTFFVVFVERGQRRIVVNYAKRQQGRRVYAAQSTHLPLKVNMAGVIPAIFASSIILFPATIASWFGGGTGWNWLTTISLYLQPGQPLYVLLYASAIIFFCFFYTALVFNPRETADNLKKSGAFVPGIRPGEQTAKYIDKVMTRLTLVGALYITFICLIPEFMRDAMKVPFYFGGTSLLIVVVVIMDFMAQVQTLMMSSQYESALKKANLKGYGR [P0AGA2] | 3.3 ± 0.39 | 9.27 ± 3 | 4.966 ± 0.022 | 5.77 ± 1 | 4.51 ± 0.048 | 5.24 ± 1 | 5.04 ± 0.31 | 4.83 ± 0.52 | 8.18 ± 0.17 | 4.94 ± 0.68 | 8.06 ± 0.49 |  |
| MAKSVPAIFLDRDGTINVDHGYVHEIDNFEFIDGVIDAMRELKKMGFALVVVTNQSGIARGKFTEAQFETLTEWMDWSLADRDVDLDGIYYCPHHPQGSVEEFRQVCDCRKPHPGMLLSARDYLHIDMAASYMVGDKLEDMQAAVAANVGTKVLVRTGKPITPEAENAADWVLNSLADLPQAIKKQQKPAQ | 2.54 ± 0.091 | 13.4 ± 3.2 | 5.54 ± 0.29 | 4.97 ± 0.51 | 5.62 ± 0.25 | 4.95 ± 0.083 | 4.782 ± 0.0071 | 5.05 ± 0.25 | 8.7 ± 0.32 | 5.49 ± 0.68 | 11.4 ± 1.5 | 5.269 ± 0.022 |
| MALHDENVVWHSHPVTVQQRELHHGHRGVVLWFTGLSGSGKSTVAGALEEALHKLGVSTYLLDGDNVRHGLCSDLGFSDADRKENIRRVGEVANLMVEAGLVVLTAFISPHRAERQMVRERVGEGRFIEVFVDTPLAICEARDPKGLYKKARAGELRNFTGIDSVYEAPESAEIHLNGEQLVTNLVQQLLDLLRQNDIIRS [P0A6J1] | 1.86 ± 0.13 |  | 4.97 ± 0.48 | 2.03 ± 0.21 | 2.4 ± 0.82 | 1.72 ± 0.06 | 4.8 ± 3 | 2.41 | 2.47 | 2.07 | 3.52 ± 0.087 | 3.79 ± 0.44 |
| MALKATIYKATVNVADLDRNQFLDASLTLARHPSETQERMMLRLLAWLKYADERLQFTRGLCADDEPEAWLRNDHLGIDLWIELGLPDERRIKKACTQAAEVALFTYNSRAAQIWWQQNQSKCVQFANLSVWYLDDEQLAKVSAFADRTMTLQATIQDGVIWLSDDKNNLEVNLTAWQQPS [P0AA97] |  | 8.84 ± 1.6 | 5.6431 ± 0.0016 | 4.82 ± 0.38 | 5.25 ± 0.72 | 3.354 ± 0.009 |  | 4.38 | 7.28 ± 0.26 | 4.93 ± 0.28 |  | 3.9 ± 0.19 |
| MALLNIFDIAGSALTAQSQRLNVAASNLANADSVTGPDGQPYRAKQVVFQVNAAPGAATGGVKVADVIESQAPDKLVYEPGNPLADAKGYVKMPNVDVVGEMVNTMSASRSYQANVEVLNTVKSMMLKTLTLGQ [P0ABX2] | 0.544 ± 0.33 | 1.79 ± 0.53 |  |  |  | > 8 | 0.417 | 3.6 |  |  |  | > 8 |
| MALQNEKNSRYLLRDWKPENPAFWENKGKHIARRNLWISVSCLLLAFCVWMLFSAVTVNLNKIGFNFTTDQLFLLTALPSVSGALLRVPYSFMVPIFGGRRWTVFSTAILIIPCVWLGIAVQNPNTPFGIFIVIALLCGFAGANFASSMGNISFFFPKAKQGSALGINGGLGNLGVSVMQLVAPLVIFVPVFAFLGVNGVPQADGSVMSLANAAWIWVPLLAIATIAAWSGMNDIASSRASIADQLPVLQRLHLWLLSLLYLATFGSFIGFSAGFAMLAKTQFPDVNILRLAFFGPFIGAIARSVGGAISDKFGGVRVTLINFIFMAIFSALLFLTLPGTGSGNFIAFYAVFMGLFLTAGLGSGSTFQMIAVIFRQITIYRVKMKGGSDEQAHKEAVTETAAALGFISAIGAVGGFFIPQAFGMSLNMTGSPVGAMKVFLIFYIVCVLLTWLVYGRRKFSQK | 2.53 | 13.7 ± 1.8 | 6.73 ± 1.1 | 6.57 ± 1.3 | 6.52 ± 0.52 | 6.07 ± 0.48 | 6.34 ± 0.088 | 4.92 ± 0.76 | 10.8 ± 2.6 | 7.05 | 12.86 ± 0.088 | 6.58 ± 0.92 |
| MALTAALKAQIAAWYKALQEQIPDFIPRAPQRQMIADVAKTLAGEEGRHLAIEAPTGVGKTLSYLIPGIAIAREEQKTLVVSTANVALQDQIYSKDLPLLKKIIPDLKFTAAFGRGRYVCPRNLTALASTEPTQQDLLAFLDDELTPNNQEEQKRCAKLKGDLDTYKWDGLRDHTDIAIDDDLWRRLSTDKASCLNRNCYYYRECPFFVARREIQEAEVVVANHALVMAAMESEAVLPDPKNLLLVLDEGHHLPDVARDALEMSAEITAPWYRLQLDLFTKLVATCMEQFRPKTIPPLAIPERLNAHCEELYELIASLNNILNLYMPAGQEAEHRFAMGELPDEVLEICQRLAKLTEMLRGLAELFLNDLSEKTGSHDIVRLHRLILQMNRALGMFEAQSKLWRLASLAQSSGAPVTKWATREEREGQLHLWFHCVGIRVSDQLERLLWRSIPHIIVTSATLRSLNSFSRLQEMSGLKEKAGDRFVALDSPFNHCEQGKIVIPRMRVEPSIDNEEQHIAEMAAFFRKQVESKKHLGMLVLFASGRAMQRFLDYVTDLRLMLLVQGDQPRYRLVELHRKRVANGERSVLVGLQSFAEGLDLKGDLLSQVHIHKIAFPPIDSPVVITEGEWLKSLNRYPFEVQSLPSASFNLIQQVGRLIRSHGCWGEVVIYDKRLLTKNYGKRLLDALPVFPIEQPEVPEGIVKKKEKTKSPRRRRR | 2.59 ± 0.09 | 9.99 ± 0.84 | 5.64 ± 0.42 | 4.38 ± 0.61 | 4.265 ± 0.026 | 4.63 ± 0.33 | 3.93 ± 0.69 | 4.18 ± 0.2 | 6.77 ± 1.1 | 4.57 ± 0.25 | 8.11 ± 0.31 | 4.6 ± 0.54 |
| MALTKAEMSEYLFDKLGLSKRDAKELVELFFEEIRRALENGEQVKLSGFGNFDLRDKNQRPGRNPKTGEDIPITARRVVTFRPGQKLKSRVENASPKDE [P0A6X7] | 3.249 ± 0.0028 |  |  |  | 7.06 ± 0.79 | 5.2 ± 0.41 |  | 5.83 ± 0.23 |  | 6.33 ± 0.39 | 11.7 ± 1.9 | 6.46 ± 1 |

Reference: the supplement of paper PMC11246515
